Test results: patent US20260117202A1
Where “and” joins values, the source holds several entries; their conditions need not be identical. Identical values can stand only once.

Tests used:
[1] = target: FHM-9 (RSV strain A2) (UniProt P03420); experiment: sandwich ELISA, AM14 coated, supernatant 1:10
[2] = target: FHS-42 (RSV strain A2) (UniProt P03420); experiment: sandwich ELISA, AM14 coated, supernatant 1:10
[3] = target: FHS-10 (RSV strain A2) (UniProt P03420); experiment: sandwich ELISA, AM14 coated, supernatant 1:10
[4] = target: FHM-12 (RSV strain A2) (UniProt P03420); experiment: sandwich ELISA, AM14 coated, supernatant 1:10
[5] = target: FHS-43 (RSV strain A2) (UniProt P03420); experiment: sandwich ELISA, AM14 coated, supernatant 1:10
[6] = target: FHS-36 (RSV strain A2) (UniProt P03420); experiment: sandwich ELISA, AM14 coated, supernatant 1:10
[7] = target: FHS-25 (RSV strain A2) (UniProt P03420); experiment: sandwich ELISA, AM14 coated, supernatant 1:10
[8] = target: FHS-93 (RSV strain A2) (UniProt P03420); experiment: sandwich ELISA, AM14 coated, supernatant 1:10
[9] = target: FHM-11 (RSV strain A2) (UniProt P03420); experiment: sandwich ELISA, AM14 coated, supernatant 1:10
[10] = target: FHS-15 (RSV strain A2) (UniProt P03420); experiment: sandwich ELISA, AM14 coated, supernatant 1:10
[11] = target: FHS-26 (RSV strain A2) (UniProt P03420); experiment: sandwich ELISA, AM14 coated, supernatant 1:10
[12] = target: FHS-54 (RSV strain A2) (UniProt P03420); experiment: sandwich ELISA, AM14 coated, supernatant 1:10
[13] = target: FHS-8 (RSV strain A2) (UniProt P03420); experiment: sandwich ELISA, AM14 coated, supernatant 1:10
[14] = target: FHS-97 (RSV strain A2) (UniProt P03420); experiment: sandwich ELISA, AM14 coated, supernatant 1:10
[15] = target: FHS-23 (RSV strain A2) (UniProt P03420); experiment: sandwich ELISA, AM14 coated, supernatant 1:10
[16] = target: FHS-39 (RSV strain A2) (UniProt P03420); experiment: sandwich ELISA, AM14 coated, supernatant 1:10
[17] = target: FHM-7 (RSV strain A2) (UniProt P03420); experiment: sandwich ELISA, AM14 coated, supernatant 1:10
[18] = target: FHM-8 (RSV strain A2) (UniProt P03420); experiment: sandwich ELISA, AM14 coated, supernatant 1:10
[19] = target: FHS-83 (RSV strain A2) (UniProt P03420); experiment: sandwich ELISA, AM14 coated, supernatant 1:10
[20] = target: FHS-41 (RSV strain A2) (UniProt P03420); experiment: sandwich ELISA, AM14 coated, supernatant 1:10
[21] = target: FHS-29 (RSV strain A2) (UniProt P03420); experiment: sandwich ELISA, AM14 coated, supernatant 1:10
[22] = target: FHM-2 (RSV strain A2) (UniProt P03420); experiment: sandwich ELISA, AM14 coated, supernatant 1:10
[23] = target: FHS-87 (RSV strain A2) (UniProt P03420); experiment: sandwich ELISA, AM14 coated, supernatant 1:10
[24] = target: FHM-23 (RSV strain A2) (UniProt P03420); experiment: sandwich ELISA, AM14 coated, supernatant 1:10
[25] = target: FHS-82 (RSV strain A2) (UniProt P03420); experiment: sandwich ELISA, AM14 coated, supernatant 1:10
[26] = target: FHS-71 (RSV strain A2) (UniProt P03420); experiment: sandwich ELISA, AM14 coated, supernatant 1:10
[27] = target: FHS-44 (RSV strain A2) (UniProt P03420); experiment: sandwich ELISA, AM14 coated, supernatant 1:10
[28] = target: FHS-85 (RSV strain A2) (UniProt P03420); experiment: sandwich ELISA, AM14 coated, supernatant 1:10
[29] = target: FHS-59 (RSV strain A2) (UniProt P03420); experiment: sandwich ELISA, AM14 coated, supernatant 1:10
[30] = target: FHS-72 (RSV strain A2) (UniProt P03420); experiment: sandwich ELISA, AM14 coated, supernatant 1:10
[31] = target: FHCS-1 (RSV strain A2) (UniProt P03420); experiment: ELISA; F coated 625 ng/ml; stored -80° C.
[32] = target: FHCS-4 (RSV strain A2) (UniProt P03420); experiment: ELISA; F coated 78.13 ng/ml; stored 37° C. 4 W
[33] = target: FHCS-2 (RSV strain A2) (UniProt P03420); experiment: ELISA; F coated 78.13 ng/ml; stored 37° C. 4 W
[34] = target: FHCS-1 (RSV strain A2) (UniProt P03420); experiment: ELISA; F coated 78.13 ng/ml; stored 37° C. 4 W
[35] = target: FHCS-4 (RSV strain A2) (UniProt P03420); experiment: ELISA; F coated 78.13 ng/ml; stored -80° C.
[36] = target: FHCS-2 (RSV strain A2) (UniProt P03420); experiment: ELISA; F coated 78.13 ng/ml; stored -80° C.
[37] = target: FHCS-1 (RSV strain A2) (UniProt P03420); experiment: ELISA; F coated 78.13 ng/ml; stored -80° C.
[38] = target: FHCS-4 (RSV strain A2) (UniProt P03420); experiment: ELISA; F coated 156.3 ng/ml; stored -80° C.
[39] = target: FHCS-2 (RSV strain A2) (UniProt P03420); experiment: ELISA; F coated 156.3 ng/ml; stored -80° C.
[40] = target: FHCS-1 (RSV strain A2) (UniProt P03420); experiment: ELISA; F coated 156.3 ng/ml; stored -80° C.

Work on AM14 monoclonal antibody yielded an OD value [1] of 2.12 OD, an OD value [2] of 0.01 OD and an OD value [3] of 0.069 OD. It also gave an OD value [4] of 2.13 OD, an OD value [5] of 0.006 OD and an OD value [6] of 0.009 OD. For the same substance, the OD value [7] was 0.007 OD, the OD value [8] was 0.009 OD and the OD value [9] was 0.006 OD. For the same substance, the OD value [10] was 0.091 OD, the OD value [11] was 0.841 OD and the OD value [12] was 0.012 OD. For the same substance, the OD value [13] was 0.013 OD, the OD value [14] was 0.006 OD and the OD value [15] was 0.008 OD. For the same substance, the OD value [16] was 0.007 OD, the OD value [17] was 0.007 OD and the OD value [18] was 0.016 OD. The OD value [19] was 0.064 OD, the OD value [20] was 0.006 OD and the OD value [21] was 0.007 OD. The OD value [22] was 2.23 OD, the OD value [23] was 0.239 OD and the OD value [24] was 1.89 OD. For the same substance, the OD value [25] was 0.063 OD, the OD value [26] was 0.012 OD and the OD value [27] was 0.039 OD. The OD value [28] was 0.008 OD, the OD value [29] was 0.006 OD and the OD value [30] was 0.007 OD.
For Synagis® (antibody), the OD value [31] was 0.161 OD and 0.154 OD, the OD value [32] was 0.019 OD and 0.025 OD and the OD value [33] was 0.03 OD and 0.028 OD. For the same substance, the OD value [34] was 0.025 OD and 0.032 OD, the OD value [35] was 0.009 OD and 0.011 OD and the OD value [36] was 0.014 OD and 0.015 OD. The OD value [37] was 0.009 OD and 0.01 OD, the OD value [38] was 0.016 OD and the OD value [39] was 0.043 OD and 0.038 OD. The OD value [40] was 0.021 OD and 0.019 OD.
